Drawing on patent publication US20150125904A1, “PROBE INCORPORATION MEDIATED BY ENZYMES” (Massachusetts Institute of Technology, priority 2012, published 2015), this text covers Km, kcat and percent of LAP-mCherry shifted up to ~80 kD for two substances.

In general, Km refers to the concentration of substrate that gives half-maximal velocity. One may read the kcat as the maximal rate divided by the concentration of active sites.

Data set [1] deals with O=C(O)CCCNC(=O)c1cc2cc(F)c(O)c(F)c2oc1=O. Nature of the data set: purified protein, by the assay type. As to conditions: other: ligation to LAP, 2 μM ligase, 600 μM LAP; pH 7.2.
The target of data set [2] is biotinylated LAP-mCherry fusion protein. Nature of the data set: gel shift on SDS-PAGE of HEK cell lysate incubated with 5 µM streptavidin, in-gel mCherry fluorescence. Background: Mobility shift assays separate free from complexed probe on a gel.

As to “E20G/W37TLplA (Escherichia coli K-12; E21G/W38T)”, in data set [1], the Km was found to be 17.5 ± 4.3 µM and the kcat worked out at 0.014 ± 0.001 s⁻¹.

“streptavidin protein (from UniProt P22629 37-163)”: the percent of LAP-mCherry shifted up to ~80 kD in data set [2] came to 21%.
